Results from PMC7271519, “The DISC1 R264Q variant increases affinity for the dopamine D2 receptor and increases GSK3 activity” (Molecular Brain, 2020).
Positions count from the first letter of the chain named. Names may count otherwise.

B1: GST-DISC1NT (human, wild type) (domain or fragment)
chain: MPGGGPQGAPAAAGGGGVSHRAGSRDCLPPAACFRRRRLARRPGYMRSSTGPGIGFLSPAVGTLFRFPGGVSGEESHHSESRARQCGLDSRGLLVRSPVSKSAAAPTVTSVRGTSAHFGIQLRGGTRLPDRLSWPCGPGSAGWQQEFAAMDSSETLDASWEAACSDGARRVRAAGSLPSAELSSNSCSPGCGPEVPPTPPGSHSAFTSSFSFIRLSLGSAGERGEAEGCPPSREAESHCQSPQEMGAKAASLDGPHEDPRCLSRPFSLLATRVSADLAQAARNSSRPERDMH
modifications: GST carrier omitted; limits not given, N-terminal head region taken from the UniProt feature 1-292
B2: GST-DISC1-NT R264Q (human) (domain or fragment)
chain: B1 chain with R264Q
modifications: GST carrier omitted; limits not given, N-terminal head region taken from the UniProt feature 1-292
B3: GST-DISC1NT (mouse, wild type) (domain or fragment)
chain: MQGGGPRGAPIHSPSHGADSGHGLPPAVAPQRRRLTRRPGYMRSTAGSGIGFLSPAVGMPHPSSAGLTGQQSQHSQSKAGQCGLDPGSHCQASLVGKPFLKSSLVPAVASEGHLHPAQRSMRKRPVHFAVHSKNDSRQSERLTGSFKPGDSGFWQELLSSDSFKSLAPSLDAPWNKGSRGLKTVKPLASPALNGPADIASLPGFQDTFTSSFSFIQLSLGAAGERGEAEGCLPSREAEPLHQRPQEMAAEASSSDRPHGDPRHLWTFSLHAAPGLADLAQVTRSSSRQSECGTV
modifications: GST carrier omitted; limits not given, N-terminal head region taken from the UniProt feature 1-294
B4: GST-Disc1-L100PNT (mouse) (domain or fragment)
chain: B3 chain with L100P
modifications: GST carrier omitted; limits not given, N-terminal head region taken from the UniProt feature 1-294

What was measured:
[1] = target: T1, TAT-D2pep[K211-T225] peptide (UniProt P14416 211-225); test: SPR; TAT-D2pep amine-coupled to carboxymethylated dextran chip (600 RU); human GST-DISC1NT or R264Q flowed at 0-4.0 uM; 25 °C; TBS-T (150 mM NaCl, 1 mM CaCl2, 1 mM MgCl2, 10 mM Tris pH 7.4, 0.005% P-20); 50 ul/min; equilibrium analysis; settings: both partners purified
T1 construct: dopamine D2 receptor, residues K211-T225; also called D2 [K211-T225]

[2] = target: T1, TAT-D2pep[K211-T225] peptide; test: SPR; TAT-D2pep amine-coupled to carboxymethylated dextran chip; mouse GST-Disc1-L100PNT at 25-400 nM, GST-DISC1NT at 100 nM-1.6 uM; 25 °C; TBS-T pH 7.4; 50 ul/min; association 180 s, dissociation 300 s; KD from association and dissociation rates; settings: both partners purified

Row | Binder | Kd [1] [nM] | Kd [2] [nM]
1 | B1 | 653 ± 6 | –
2 | B2 | 243 ± 3 | –
3 | B3 | – | 760 ± 20
4 | B4 | – | 100 ± 2
